# Assay results published in paper PMC9482650, “Quantitative fragmentomics allow affinity mapping of interactomes” (Nature Communications, 2022).
# T1: SNTB1, Q13884
# T1 sequence (Q13884 107-205, limits assumed, looked up): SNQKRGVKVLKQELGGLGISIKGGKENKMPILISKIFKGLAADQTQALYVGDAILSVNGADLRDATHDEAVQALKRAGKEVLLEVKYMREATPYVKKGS
# T2: HTRA3, P83110
# T2 sequence (P83110 354-453, limits assumed, looked up): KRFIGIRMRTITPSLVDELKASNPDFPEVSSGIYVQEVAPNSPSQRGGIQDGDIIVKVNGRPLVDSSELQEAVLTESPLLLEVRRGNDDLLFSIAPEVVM
# T3: LRRC7, Q96NW7
# T3 sequence (Q96NW7 1440-1537, limits assumed, looked up): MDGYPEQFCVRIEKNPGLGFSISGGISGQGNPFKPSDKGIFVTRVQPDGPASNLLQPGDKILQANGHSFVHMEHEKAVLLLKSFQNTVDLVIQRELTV
# T4: DFNB31_2, Q9P202
# T4 sequence (Q9P202 274-371, limits assumed, looked up): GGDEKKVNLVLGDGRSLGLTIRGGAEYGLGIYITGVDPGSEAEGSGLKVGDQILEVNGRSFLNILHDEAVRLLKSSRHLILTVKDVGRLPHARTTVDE
# T5: ARHGAP21, Q5T5U3
# T5 sequence (Q5T5U3 45-169, limits assumed, looked up): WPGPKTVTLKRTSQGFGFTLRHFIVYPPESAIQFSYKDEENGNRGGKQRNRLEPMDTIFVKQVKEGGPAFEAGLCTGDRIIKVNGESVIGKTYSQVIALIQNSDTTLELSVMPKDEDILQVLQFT
# T6: MPDZ_5, O75970
# T6 sequence (O75970 695-796, limits assumed, looked up): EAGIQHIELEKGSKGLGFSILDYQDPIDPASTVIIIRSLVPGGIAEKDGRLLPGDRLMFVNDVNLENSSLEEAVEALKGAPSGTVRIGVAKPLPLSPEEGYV
# T7: PDZRN3_1, Q9UPQ7
# T7 sequence (Q9UPQ7 244-349, limits assumed, looked up): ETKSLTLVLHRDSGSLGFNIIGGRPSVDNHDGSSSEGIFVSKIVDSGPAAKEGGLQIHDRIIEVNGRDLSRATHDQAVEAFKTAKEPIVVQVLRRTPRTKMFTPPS
# T8: MPDZ_10, O75970
# T8 sequence (O75970 1624-1722, limits assumed, looked up): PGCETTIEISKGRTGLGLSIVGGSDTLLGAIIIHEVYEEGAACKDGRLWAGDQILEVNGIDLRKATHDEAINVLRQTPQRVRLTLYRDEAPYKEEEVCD
# T9: RHPN1, Q8TCX5
# T9 sequence (Q8TCX5 508-602, limits assumed, looked up): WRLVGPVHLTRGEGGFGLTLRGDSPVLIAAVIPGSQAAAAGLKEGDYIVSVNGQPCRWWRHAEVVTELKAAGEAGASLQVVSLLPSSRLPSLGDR
# T10: MPP7, Q5T2T1
# T10 sequence (Q5T2T1 134-230, limits assumed, looked up): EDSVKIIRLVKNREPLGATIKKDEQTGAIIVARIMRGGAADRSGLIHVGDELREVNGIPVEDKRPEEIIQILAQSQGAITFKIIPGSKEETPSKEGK
# T11: FRMPD1, Q5SYB0
# T11 sequence (Q5SYB0 52-145, limits assumed, looked up): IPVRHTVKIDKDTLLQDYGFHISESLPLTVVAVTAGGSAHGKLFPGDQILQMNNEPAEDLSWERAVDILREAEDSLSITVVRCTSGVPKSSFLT
# Biological target: FRMPD2_2, Q68DX3
# Assay: holdup assay
# Parameters: key: below the threshold = too weak to quantify, mostly under pKd 3.1 to 4
# Conditions: plain residues with an end cap or a label only (N-terminal biotin on a linker: ado-ado)
# Chain of FRMPD2_2, Q68DX3 (Q68DX3 944-1038): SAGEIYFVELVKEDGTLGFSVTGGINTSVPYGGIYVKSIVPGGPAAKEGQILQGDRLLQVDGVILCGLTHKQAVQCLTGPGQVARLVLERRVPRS
row,Binder,pKd
1,"TNSKQGETTV [FZD1, Q9UP38]",below the threshold
2,"TFSRRPKTRV [CD226, Q15762]",below the threshold

# Biological target: T1, SNTB1, Q13884
# Assay: holdup assay
# Parameters: key: below the threshold = too weak to quantify, mostly under pKd 3.1 to 4
# Conditions: plain residues with an end cap or a label only (N-terminal biotin on a linker: ado-ado)
row,Binder,pKd
1,"TNSKQGETTV [FZD1, Q9UP38]",4.72
2,"TFSRRPKTRV [CD226, Q15762]",below the threshold

# Biological target: DLG2_3, Q15700
# Assay: holdup assay
# Parameters: key: below the threshold = too weak to quantify, mostly under pKd 3.1 to 4
# Conditions: plain residues with an end cap or a label only (N-terminal biotin on a linker: ado-ado)
row,Binder,pKd
1,"TNSKQGETTV [FZD1, Q9UP38]",3.77
2,"TFSRRPKTRV [CD226, Q15762]",3.88

# Biological target: T2, HTRA3, P83110
# Assay: holdup assay
# Parameters: key: below the threshold = too weak to quantify, mostly under pKd 3.1 to 4
# Conditions: plain residues with an end cap or a label only (N-terminal biotin on a linker: ado-ado)
row,Binder,pKd
1,"TNSKQGETTV [FZD1, Q9UP38]",below the threshold
2,"TFSRRPKTRV [CD226, Q15762]",below the threshold

# Biological target: T3, LRRC7, Q96NW7
# Assay: holdup assay
# Parameters: key: below the threshold = too weak to quantify, mostly under pKd 3.1 to 4
# Conditions: plain residues with an end cap or a label only (N-terminal biotin on a linker: ado-ado)
row,Binder,pKd
1,"TNSKQGETTV [FZD1, Q9UP38]",below the threshold
2,"TFSRRPKTRV [CD226, Q15762]",below the threshold

# Biological target: Inadl_3, Q8NI35
# Assay: holdup assay
# Parameters: key: below the threshold = too weak to quantify, mostly under pKd 3.1 to 4
# Conditions: plain residues with an end cap or a label only (N-terminal biotin on a linker: ado-ado)
# Chain of Inadl_3, Q8NI35 (Q8NI35 359-469): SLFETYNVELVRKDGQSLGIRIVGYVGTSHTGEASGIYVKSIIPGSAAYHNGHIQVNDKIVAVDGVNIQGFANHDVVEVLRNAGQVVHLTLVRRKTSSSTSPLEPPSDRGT
row,Binder,pKd
1,"TNSKQGETTV [FZD1, Q9UP38]",below the threshold
2,"TFSRRPKTRV [CD226, Q15762]",below the threshold

# Biological target: SCRIB_3, Q14160
# Assay: holdup assay
# Parameters: key: below the threshold = too weak to quantify, mostly under pKd 3.1 to 4
# Conditions: plain residues with an end cap or a label only (N-terminal biotin on a linker: ado-ado)
# Chain of SCRIB_3, Q14160 (Q14160 999-1103): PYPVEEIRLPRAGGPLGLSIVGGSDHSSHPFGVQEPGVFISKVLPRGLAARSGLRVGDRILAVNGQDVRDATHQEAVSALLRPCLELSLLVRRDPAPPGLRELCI
row,Binder,pKd
1,"TNSKQGETTV [FZD1, Q9UP38]",4.38
2,"TFSRRPKTRV [CD226, Q15762]",below the threshold

# Biological target: T4, DFNB31_2, Q9P202
# Assay: holdup assay
# Parameters: key: below the threshold = too weak to quantify, mostly under pKd 3.1 to 4
# Conditions: plain residues with an end cap or a label only (N-terminal biotin on a linker: ado-ado)
row,Binder,pKd
1,"TNSKQGETTV [FZD1, Q9UP38]",below the threshold
2,"TFSRRPKTRV [CD226, Q15762]",below the threshold

# Biological target: T5, ARHGAP21, Q5T5U3
# Assay: holdup assay
# Parameters: key: below the threshold = too weak to quantify, mostly under pKd 3.1 to 4
# Conditions: plain residues with an end cap or a label only (N-terminal biotin on a linker: ado-ado)
row,Binder,pKd
1,"TNSKQGETTV [FZD1, Q9UP38]",3.93
2,"TFSRRPKTRV [CD226, Q15762]",4.06

# Biological target: DLG4_1, P78352
# Assay: holdup assay
# Parameters: key: below the threshold = too weak to quantify, mostly under pKd 3.1 to 4
# Conditions: plain residues with an end cap or a label only (N-terminal biotin on a linker: ado-ado)
# Chain of DLG4_1, P78352 (P78352 62-152): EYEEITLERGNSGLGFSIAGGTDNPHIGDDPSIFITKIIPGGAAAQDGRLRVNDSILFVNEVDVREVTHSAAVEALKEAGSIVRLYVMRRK
row,Binder,pKd
1,"TNSKQGETTV [FZD1, Q9UP38]",4.7
2,"TFSRRPKTRV [CD226, Q15762]",3.62

# Biological target: SCRIB_1, Q14160
# Assay: holdup assay
# Parameters: key: below the threshold = too weak to quantify, mostly under pKd 3.1 to 4
# Conditions: plain residues with an end cap or a label only (N-terminal biotin on a linker: ado-ado)
# Chain of SCRIB_1, Q14160 (Q14160 718-814): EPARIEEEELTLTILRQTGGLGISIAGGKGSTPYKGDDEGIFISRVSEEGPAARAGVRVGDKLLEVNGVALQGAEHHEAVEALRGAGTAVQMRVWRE
row,Binder,pKd
1,"TNSKQGETTV [FZD1, Q9UP38]",4.07
2,"TFSRRPKTRV [CD226, Q15762]",below the threshold

# Biological target: T6, MPDZ_5, O75970
# Assay: holdup assay
# Parameters: key: below the threshold = too weak to quantify, mostly under pKd 3.1 to 4
# Conditions: plain residues with an end cap or a label only (N-terminal biotin on a linker: ado-ado)
row,Binder,pKd
1,"TNSKQGETTV [FZD1, Q9UP38]",below the threshold
2,"TFSRRPKTRV [CD226, Q15762]",below the threshold

# Biological target: T7, PDZRN3_1, Q9UPQ7
# Assay: holdup assay
# Parameters: key: below the threshold = too weak to quantify, mostly under pKd 3.1 to 4
# Conditions: plain residues with an end cap or a label only (N-terminal biotin on a linker: ado-ado)
row,Binder,pKd
1,"TNSKQGETTV [FZD1, Q9UP38]",3.85
2,"TFSRRPKTRV [CD226, Q15762]",3.48

# Biological target: TJP1_2, Q07157
# Assay: holdup assay
# Parameters: key: below the threshold = too weak to quantify, mostly under pKd 3.1 to 4
# Conditions: plain residues with an end cap or a label only (N-terminal biotin on a linker: ado-ado)
# Chain of TJP1_2, Q07157 (Q07157 181-274): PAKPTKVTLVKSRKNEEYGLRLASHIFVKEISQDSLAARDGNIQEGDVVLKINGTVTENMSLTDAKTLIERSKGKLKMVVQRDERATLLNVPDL
row,Binder,pKd
1,"TNSKQGETTV [FZD1, Q9UP38]",3.48
2,"TFSRRPKTRV [CD226, Q15762]",3.5

# Biological target: Inadl_4, Q8NI35
# Assay: holdup assay
# Parameters: key: below the threshold = too weak to quantify, mostly under pKd 3.1 to 4
# Conditions: plain residues with an end cap or a label only (N-terminal biotin on a linker: ado-ado)
# Chain of Inadl_4, Q8NI35 (Q8NI35 547-651): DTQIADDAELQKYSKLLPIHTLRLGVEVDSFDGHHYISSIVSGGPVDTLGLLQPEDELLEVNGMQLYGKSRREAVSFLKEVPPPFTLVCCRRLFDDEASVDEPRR
row,Binder,pKd
1,"TNSKQGETTV [FZD1, Q9UP38]",below the threshold
2,"TFSRRPKTRV [CD226, Q15762]",below the threshold

# Biological target: T8, MPDZ_10, O75970
# Assay: holdup assay
# Parameters: key: below the threshold = too weak to quantify, mostly under pKd 3.1 to 4
# Conditions: plain residues with an end cap or a label only (N-terminal biotin on a linker: ado-ado)
row,Binder,pKd
1,"TNSKQGETTV [FZD1, Q9UP38]",below the threshold
2,"TFSRRPKTRV [CD226, Q15762]",4.03

# Biological target: PDLIM1, O00151
# Assay: holdup assay
# Parameters: key: below the threshold = too weak to quantify, mostly under pKd 3.1 to 4
# Conditions: plain residues with an end cap or a label only (N-terminal biotin on a linker: ado-ado)
# Chain of PDLIM1, O00151 (O00151 1-87): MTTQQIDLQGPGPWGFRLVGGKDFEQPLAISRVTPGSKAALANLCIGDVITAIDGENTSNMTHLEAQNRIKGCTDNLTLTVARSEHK
row,Binder,pKd
1,"TNSKQGETTV [FZD1, Q9UP38]",below the threshold
2,"TFSRRPKTRV [CD226, Q15762]",below the threshold

# Biological target: NHERF4_1, Q86UT5-2
# Assay: holdup assay
# Parameters: key: below the threshold = too weak to quantify, mostly under pKd 3.1 to 4
# Conditions: plain residues with an end cap or a label only (N-terminal biotin on a linker: ado-ado)
# Chain of NHERF4_1, Q86UT5-2 (Q86UT5 other isoform, or with tags, fused parts or gaps): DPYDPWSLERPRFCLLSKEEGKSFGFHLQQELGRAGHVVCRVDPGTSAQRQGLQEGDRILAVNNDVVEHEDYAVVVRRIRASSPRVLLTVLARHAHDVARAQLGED
row,Binder,pKd
1,"TNSKQGETTV [FZD1, Q9UP38]",below the threshold
2,"TFSRRPKTRV [CD226, Q15762]",below the threshold

# Biological target: GORASP1, Q9BQQ3
# Assay: holdup assay
# Parameters: key: below the threshold = too weak to quantify, mostly under pKd 3.1 to 4
# Conditions: plain residues with an end cap or a label only (N-terminal biotin on a linker: ado-ado)
# Chain of GORASP1, Q9BQQ3 (Q9BQQ3 1-208): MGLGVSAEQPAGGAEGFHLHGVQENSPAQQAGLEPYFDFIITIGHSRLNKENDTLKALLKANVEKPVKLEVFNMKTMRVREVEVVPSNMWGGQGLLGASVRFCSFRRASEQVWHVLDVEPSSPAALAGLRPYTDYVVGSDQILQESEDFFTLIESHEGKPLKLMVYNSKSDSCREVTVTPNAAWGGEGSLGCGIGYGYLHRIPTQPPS
row,Binder,pKd
1,"TNSKQGETTV [FZD1, Q9UP38]",below the threshold
2,"TFSRRPKTRV [CD226, Q15762]",3.75

# Biological target: T9, RHPN1, Q8TCX5
# Assay: holdup assay
# Parameters: key: below the threshold = too weak to quantify, mostly under pKd 3.1 to 4
# Conditions: plain residues with an end cap or a label only (N-terminal biotin on a linker: ado-ado)
row,Binder,pKd
1,"TNSKQGETTV [FZD1, Q9UP38]",4.14
2,"TFSRRPKTRV [CD226, Q15762]",below the threshold

# Biological target: T10, MPP7, Q5T2T1
# Assay: holdup assay
# Parameters: key: below the threshold = too weak to quantify, mostly under pKd 3.1 to 4
# Conditions: plain residues with an end cap or a label only (N-terminal biotin on a linker: ado-ado)
row,Binder,pKd
1,"TNSKQGETTV [FZD1, Q9UP38]",below the threshold
2,"TFSRRPKTRV [CD226, Q15762]",below the threshold

# Biological target: Inadl_1, Q8NI35
# Assay: holdup assay
# Parameters: key: below the threshold = too weak to quantify, mostly under pKd 3.1 to 4
# Conditions: plain residues with an end cap or a label only (N-terminal biotin on a linker: ado-ado)
# Chain of Inadl_1, Q8NI35 (Q8NI35 113-229): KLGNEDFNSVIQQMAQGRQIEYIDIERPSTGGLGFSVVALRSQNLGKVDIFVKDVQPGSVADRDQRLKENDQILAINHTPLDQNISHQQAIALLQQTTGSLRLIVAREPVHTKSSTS
row,Binder,pKd
1,"TNSKQGETTV [FZD1, Q9UP38]",below the threshold
2,"TFSRRPKTRV [CD226, Q15762]",below the threshold

# Biological target: IL16_1, Q14005
# Assay: holdup assay
# Parameters: key: below the threshold = too weak to quantify, mostly under pKd 3.1 to 4
# Conditions: plain residues with an end cap or a label only (N-terminal biotin on a linker: ado-ado)
# Chain of IL16_1, Q14005 (Q14005 210-306): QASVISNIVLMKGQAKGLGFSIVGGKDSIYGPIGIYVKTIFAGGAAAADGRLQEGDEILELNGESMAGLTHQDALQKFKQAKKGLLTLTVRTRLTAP
row,Binder,pKd
1,"TNSKQGETTV [FZD1, Q9UP38]",below the threshold
2,"TFSRRPKTRV [CD226, Q15762]",3.57

# Biological target: T11, FRMPD1, Q5SYB0
# Assay: holdup assay
# Parameters: key: below the threshold = too weak to quantify, mostly under pKd 3.1 to 4
# Conditions: plain residues with an end cap or a label only (N-terminal biotin on a linker: ado-ado)
row,Binder,pKd
1,"TNSKQGETTV [FZD1, Q9UP38]",below the threshold
2,"TFSRRPKTRV [CD226, Q15762]",below the threshold

# Biological target: GORASP2, Q9H8Y8
# Assay: holdup assay
# Parameters: key: below the threshold = too weak to quantify, mostly under pKd 3.1 to 4
# Conditions: plain residues with an end cap or a label only (N-terminal biotin on a linker: ado-ado)
row,Binder,pKd
1,"TNSKQGETTV [FZD1, Q9UP38]",3.99
2,"TFSRRPKTRV [CD226, Q15762]",3.87

# Biological target: NHERF4_4, Q86UT5
# Assay: holdup assay
# Parameters: key: below the threshold = too weak to quantify, mostly under pKd 3.1 to 4
# Conditions: plain residues with an end cap or a label only (N-terminal biotin on a linker: ado-ado)
# Chain of NHERF4_4, Q86UT5 (Q86UT5 464-550): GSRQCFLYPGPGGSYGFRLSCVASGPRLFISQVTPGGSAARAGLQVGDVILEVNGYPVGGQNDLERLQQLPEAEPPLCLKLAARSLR
row,Binder,pKd
1,"TNSKQGETTV [FZD1, Q9UP38]",3.95
2,"TFSRRPKTRV [CD226, Q15762]",below the threshold

# Biological target: GRIP2_6, Q9C0E4
# Assay: holdup assay
# Parameters: key: below the threshold = too weak to quantify, mostly under pKd 3.1 to 4
# Conditions: plain residues with an end cap or a label only (N-terminal biotin on a linker: ado-ado)
# Chain of GRIP2_6, Q9C0E4 (Q9C0E4 648-740): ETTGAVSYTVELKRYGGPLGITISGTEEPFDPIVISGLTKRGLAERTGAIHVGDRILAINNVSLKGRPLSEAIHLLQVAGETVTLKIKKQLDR
row,Binder,pKd
1,"TNSKQGETTV [FZD1, Q9UP38]",below the threshold
2,"TFSRRPKTRV [CD226, Q15762]",below the threshold
